From doi:10.1101/2023.10.24.563787 (bioRxiv, 2023)

Target: the molecule itself
Experiment: cryo-EM structure

B1: 3xFLAG-Lip1, small regulatory subunit of the yeast ceramide synthase (CerS) complex (natural protein, S. cerevisiae)
chain: PKIFNLFRVCFISLLLIAAVEYFKYGTRINYEWFHCTPIKEPQSGSVIKLWARGGPSCDKRGEYKTIVKRITRDYEPNDEHLSFCIIENDNVPPVHYPIHEDKGEPGYVAYVGYDTDSELVQELCADSTIYHM
Q: B1 was tested. Which “stoichiometry N” value did it give?
A: 2
